± gives the uncertainty stated by the source.
Assay: self-splicing fitness, log relative to wild type (ln ratio); higher = more splicing; Tetrahymena group I intron in knt gene, E. coli kanamycin selection, DiMSum; sequences stand for … in CUCUCU…GGAGGGAAAAGUUAUCAGGCAUGCACCUGGUAGCUAGUCUUUAAACCAAUAGAUUGCAUCGGUUUAAAAGGCAAGACCGUCAAAUUGCGGGAAAGGGGUCAACAGCCGUUCAGUACCAAGUCUCAGGGGAAACUUUGAGAUGGCCUUGCAAAGGGUAUGGUAAUAAGCUGACGGACAUGGUCCUAACCACGCAGCCAAGUCCUAAGUCAACAGAUCUUCUGUUGAUAUGGAUGCAGUUCACAGACUAAAUGUCGGUCGGGGAAGAUGUAUUCUUCUCAUAAGAUAUAGUCGGACCUCUCCUUAAUGGGAGCUAGCGGAUGAAGUGAUGCAACACUGGAGCCGCUGGGAACUAAUUUGUAUGCGAAAGUAUAUUGAUUAGUUUUGGAGUACUCGUGGUCG
How it was run: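 DiMSum derived fitness as the error-weighted combination of fold changes across replicates, kanamycin versus no kanamycin, normalised to wild type. E. coli BL21(DE3) held the library, which randomised all eight P1ex-region intron nucleotides within the knt kanamycin-resistance gene on pET-22b(+). Six replicate transformations grew overnight at 37°C or 30°C on LB agar with or without 25 μg/mL kanamycin, also containing 100 μg/mL carbenicillin, 50 μM IPTG and 0.2% rhamnose, and pooled colonies were amplicon-sequenced on an Illumina HiSeq 2500.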

| Sequence | self-splicing fitness (ln) (30 °C) | self-splicing fitness (ln) (37 °C) |
| --- | --- | --- |
| GACGAGCAAUAUUACGUCUC | -3.48 ± 0.36 | -1.23 ± 0.28 |
| GACGAGCAAUAUUACGUCUU | -2.63 ± 0.21 | -1.01 ± 0.17 |
| GACGAGCAAUAUUACGUGGA | -4 ± 0.21 | -2.92 ± 0.21 |
| GACGAGCAAUAUUACGUGGG | -4.32 ± 0.36 | -3.12 ± 0.2 |
| GACUAGCAAUAUUACGAAGU | -3.08 ± 0.17 | -1.82 ± 0.22 |
| GACUAGCAAUAUUACGAAUU | -1.35 ± 0.092 | -0.277 ± 0.11 |
| GACUAGCAAUAUUACGACAG | -2.92 ± 0.14 | -2.4 ± 0.2 |
| GACUAGCAAUAUUACGACUG | -1.64 ± 0.1 | 0.0415 ± 0.13 |
| GACUAGCAAUAUUACGAGAG | -3.75 ± 0.18 | -2.28 ± 0.14 |
| GACUAGCAAUAUUACGAGUC | – | -2.36 ± 0.39 |
| GACUAGCAAUAUUACGAUCA | -0.805 ± 0.062 | -0.314 ± 0.077 |
| GACUAGCAAUAUUACGAUGC | -0.221 ± 0.062 | 0.0502 ± 0.082 |
| GACUAGCAAUAUUACGCACC | -0.905 ± 0.18 | 0.000851 ± 0.28 |
| GACUAGCAAUAUUACGCAGA | -2.34 ± 0.16 | -1.62 ± 0.17 |
| GACUAGCAAUAUUACGCCUA | -0.114 ± 0.18 | -0.547 ± 0.15 |
| GACUAGCAAUAUUACGCGAA | -1.83 ± 0.18 | -0.638 ± 0.17 |
| GACUAGCAAUAUUACGCGAG | -2.49 ± 0.21 | -1.28 ± 0.15 |
| GACUAGCAAUAUUACGCGGU | -3.62 ± 0.17 | -3.27 ± 0.28 |
| GACUAGCAAUAUUACGCGUG | -1.44 ± 0.061 | -0.609 ± 0.067 |
| GACUAGCAAUAUUACGCUUA | -0.282 ± 0.17 | -0.7 ± 0.14 |
| GACUAGCAAUAUUACGGACG | -1.4 ± 0.21 | -1.85 ± 0.13 |
| GACUAGCAAUAUUACGGAGC | -1.58 ± 0.16 | -2.19 ± 0.2 |
| GACUAGCAAUAUUACGGAGG | – | -1.68 ± 0.4 |
| GACUAGCAAUAUUACGGAUG | -2.9 ± 0.11 | -1.29 ± 0.1 |

| Sequence | self-splicing fitness (ln) (30 °C) | self-splicing fitness (ln) (37 °C) |
| --- | --- | --- |
| GACUAGCAAUAUUACGGCAA | -0.738 ± 0.08 | -0.302 ± 0.09 |
| GACUAGCAAUAUUACGGCAG | -2.84 ± 0.14 | -2.49 ± 0.23 |
| GACUAGCAAUAUUACGGCGC | 0.0438 ± 0.14 | -0.0936 ± 0.17 |
| GACUAGCAAUAUUACGGGUC | -3.22 ± 0.19 | -2.71 ± 0.28 |
| GACUAGCAAUAUUACGGUGC | -2.65 ± 0.14 | -1.73 ± 0.16 |
| GACUAGCAAUAUUACGUAAC | -1.33 ± 0.073 | -0.875 ± 0.1 |
| GACUAGCAAUAUUACGUAGC | -2.47 ± 0.11 | -1.4 ± 0.1 |
| GACUAGCAAUAUUACGUCGU | -3.23 ± 0.18 | -1.47 ± 0.13 |
| GACUAGCAAUAUUACGUCUA | -2.89 ± 0.2 | -0.852 ± 0.12 |
| GACUAGCAAUAUUACGUGUA | -1.06 ± 0.067 | -0.258 ± 0.069 |
| GACUAGCAAUAUUACGUUCA | -0.661 ± 0.11 | -0.533 ± 0.12 |
| GACUAGCAAUAUUACGUUGU | -3.19 ± 0.14 | -2.17 ± 0.12 |
| GAGAAGCAAUAUUACGAAAA | -3.53 ± 0.4 | -2.2 ± 0.31 |
| GAGAAGCAAUAUUACGAACC | -0.324 ± 0.14 | -0.188 ± 0.22 |
| GAGAAGCAAUAUUACGAGCA | -1.79 ± 0.15 | -0.727 ± 0.14 |
| GAGAAGCAAUAUUACGCGAA | -2 ± 0.11 | -1.93 ± 0.17 |
| GAGAAGCAAUAUUACGCUGG | -2.87 ± 0.41 | -1.64 ± 0.41 |
| GAGAAGCAAUAUUACGCUUA | -2.41 ± 0.12 | -1.24 ± 0.13 |
| GAGAAGCAAUAUUACGGAAG | -3.57 ± 0.16 | -2.39 ± 0.14 |
| GAGAAGCAAUAUUACGGCUA | 0.0865 ± 0.09 | -0.0778 ± 0.1 |
| GAGAAGCAAUAUUACGGGCC | -2.03 ± 0.22 | -2.56 ± 0.41 |
| GAGAAGCAAUAUUACGGGCU | -2.57 ± 0.14 | -1.16 ± 0.14 |
| GAGAAGCAAUAUUACGGGGA | -2.34 ± 0.22 | -2.67 ± 0.28 |
| GAGAAGCAAUAUUACGGGUA | -2.02 ± 0.15 | -2.14 ± 0.16 |
